# Laboratory results as given in patent US20180188270A1, “DIAGNOSTIC TEST FOR ALZHEIMER'S DISEASE BASED ON IDENTIFICATION OF A PROTEOLYTIC PATHWAY” (Health Research, Inc., priority 2015, published 2018).
# “And” between values parts separate entries of the source, which are not always exact repeats. Equal entries are not always repeated.
# Key:
# [1] = hPEPD-degrading activity of mouse plasma samples; assay type: in vitro ADME
# Method: Measurement of in vitro degradation of hPEPD, mSRC and hAβ1-42. To determine whether a blood coagulation factor degrades hPEPD, hPEPD at 90 nM or lower concentrations (10 or 40 nM) was incubated with solvent, 100 nM FIIa, 100 nM FXa, 10 nM FVIIa with or without 10 nM TF, or 10 nM FVII with or without 10 nM TF and/or 100 nM FIIa in PBS in a total volume of 100 μl containing 5 mM CaCl2 for desired times at RT. […] To compare the hPEPD-degrading activities of different plasma samples, 9.2 pmol of hPEPD was incubated with 100 μl of plasma from WT mice or FVII^tTA/tTA mice at RT, with or without FIIa or FXa (10 pmol), and to maximize detection of any activity, all incubations lasted for 24 h. […] Although some clotting activity may take place before and during centrifugation of the blood sample, our experiments indicate that activation of coagulation factors, e.g., FVII, is very limited (see FIG. 5A). To measure remaining hPEPD, the incubated samples were cleared of potential fibrin clots by centrifugation and then analyzed by SDS-PAGE and silver staining (using the LC 6070 kit from Invitrogen), IB or measurement of hPEPD enzymatic activity. hPEPD enzymatic activity was measured using glycyl-proline as a substrate (as described in Zbucka et al., Folia Histochem Cytobiol 2007; 45 Suppl 1: S181-185). The precipitates from each incubated sample were washed with PBS twice and then resuspended in 2.5% SDS (20 μper sample); each solution was mixed with 10 μl loading dye and analyzed for hPEPD by IB, using pure hPEPD as a standard and factor FXIIIa as a binding control, respectively.
# To measure degradation of hPEPD in plasma samples with or without removal of FVII and FVIIa, plasma samples from WT mice as described above were either used directly or immunodepleted of FVII and FVIIa before use. To remove FVII and FVIIa from plasma, 500 μl plasma was incubated with an antibody specific for FVII/FVIIa (GTX79785; 10 μg) and protein A sepharose beads for 1 h at RT. Following centrifugation at 13,000×g for 1 min at 4° C., the supernatant fraction was collected and analyzed by IB to confirm depletion of FVII and FVIIa. Next, 9.2 pmol of hPEPD was incubated with 100 μl of regular plasma or the plasma depleted of FVII/FVIIa, with or without FIIa (10 pmol) for 24 h at RT. Potential fibrin clots formed during the incubation was removed by centrifugation at the end of the incubation, and remaining hPEPD was measured by hPEPD enzymatic activity analysis.
# FXII = assay: Binding to coagulation factor FXII (IP and IB); design: species or system human; settings: 40 nM (hAβ1-42 200 nM) with FXII in PBS, 2 h
# Method: Binding reactions were carried out in PBS in a total volume of 100 μl for 2 h at 37° C. To assess binding of hPEPD to HMWK, PK, FXI, FXII or a FXII mutant, hPEPD at 40 nM was incubated with a potential binding partner at 0.5 μM. All FXII mutants are His tagged, while FXII is either 6XHis-tagged (generated in our own laboratory) or not His-tagged (purchased commercially), depending on the experiment. To compare hPEPD and its mutants for binding to FXII, hPEPD or a mutant (40 nM) was incubated with FXII at 0.5 μM. Likewise, to assess binding of mSRC to FXII and its mutants, mSRC (40 nM) was incubated with FXII or a mutant at 0.5 μM. At the end of the incubation, 300 μl PBS containing a specific primary antibody was added to the incubation solution, which was further incubated at 4° C. overnight, followed by IP by protein G-agarose, and the precipitates were analyzed by IB. […] The precipitates were re-dissolved in 30 μl of 2% SDS, which were analyzed along with the supernatants by IB.
# plasma PEPD = assay: Plasma PEPD concentration in mice by ELISA; assay type: in vivo, mouse; settings: for average plasma level of total PEPD (hPEPD plus mPEPD), increase: hPEPD 10 mg/kg i.p., vs control
# Method: (§1) Animal studies. All animal studies were performed in accordance with protocols approved by the Institutional Animal Care and Use Committee at Roswell Park Cancer Institute. Male mice at 7-8 weeks of age were used, including wild type (WT) mice (C57BL/6), and mice deficient in FXII (C57BL/6-FXII^−/−) or FVII (C57BL/6-FVII^tTA/tTA). WT C57BL/6 mice were purchased from Taconic. C57BL/6-FXII^−/− mice and C57BL/6-FVII^tTA/tTA mice were bred in our own facility and genotyped. The breeders were kindly provided by Dr. Francis J. Castellino at University of Notre Dame. […] CCl4 was dissolved in corn oil, whereas all other substances were dissolved in PBS. The vehicle or the test substance was given to mice in 0.1 ml volume per 20 g body weight. Blood was collected from the mice at specific times by cardiac puncture at the time of sacrifice by carbon dioxide, and heart, liver and kidney were also collected from some of the mice. Blood was collected into K3 EDTA-containing tubes (Multivette 600 from Sarstedt), unless specified otherwise. All blood samples were promptly centrifuged to obtain plasma samples.
# Measurement of plasma levels of PEPD, SRC, Aβ1-42 and FI. […] The plates were washed three times with phosphate buffered saline tween-20 (PBST) and the coated wells were blocked by incubation with 200 μl/well of 1% BSA in PBS for at least 2 h at RT. After another round of wash with PBST, the plates were incubated with appropriately diluted Aβ1-42 standard, SRC standard or plasma samples (100 μl/well) for 2 h at RT. The plates were then washed with PBST and incubated with an anti-Aβ1-42 rabbit polyclonal antibody (sc-9129) or anti-SRC rabbit monoclonal antibody (2123) at 100 μl/well for 2 h at RT. The plates were washed again with PBST, and each well was incubated with a goat anti-rabbit IgG-HRP conjugate (100 μl) for 1 h at RT. After yet another round of wash with PBST, each well was incubated with 100 μl of HRP substrate 3,3′,5,5′-tetramethylbenzedine (Cell Signaling, 7004). Upon adequate color development, 100 μl of stop solution (Cell Signaling, 7002) was added to each well, and absorbance at 450 nm was promptly recorded by a microtiter plate reader. Plasma FI concentration was determined using an assay kit (400-374-130050) from GenWay Biotech, following the manufacturer's instruction.
# plasma mSRC = assay: Plasma SRC concentration in mice by ELISA; assay type: in vivo, mouse; settings: FXII−/− mice, CCl4 0.5 g/kg or hPEPD 4 mg/kg i.p., 24 h
# Method: as §1, with “Blood was collected into K3 EDTA-containing tubes (Multivette 600 from Sarstedt), unless specified otherwise. All blood samples were promptly centrifuged to obtain plasma samples.” left out
# Measurement of plasma levels of PEPD, SRC, Aβ1-42 and FI. […] Upon adequate color development, 100 μl of stop solution (Cell Signaling, 7002) was added to each well, and absorbance at 450 nm was promptly recorded by a microtiter plate reader. Plasma FI concentration was determined using an assay kit (400-374-130050) from GenWay Biotech, following the manufacturer's instruction.
# FXa = target: T1, FXa (Homo sapiens, UniProt P00742); assay: hPEPD stability on incubation with FXa; assay type: biochemical; settings: hPEPD 90 nM, FXa 100 nM
# T1 construct: purchased Haematologic Technologies HCXA-0060
# T1 sequence (P00742 41-179 limits assumed): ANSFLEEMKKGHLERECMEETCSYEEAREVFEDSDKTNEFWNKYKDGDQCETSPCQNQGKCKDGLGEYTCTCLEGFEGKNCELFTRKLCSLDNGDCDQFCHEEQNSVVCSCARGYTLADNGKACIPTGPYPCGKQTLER
# T1 sequence (P00742 235-488 limits assumed): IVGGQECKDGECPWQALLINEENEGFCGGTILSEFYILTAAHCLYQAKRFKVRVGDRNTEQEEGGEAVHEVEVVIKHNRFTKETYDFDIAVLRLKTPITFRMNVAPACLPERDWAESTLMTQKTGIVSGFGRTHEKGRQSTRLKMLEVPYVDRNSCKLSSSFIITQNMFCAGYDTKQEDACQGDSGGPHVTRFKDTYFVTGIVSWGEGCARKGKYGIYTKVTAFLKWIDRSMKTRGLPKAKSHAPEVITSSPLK
# Method: Measurement of in vitro degradation of hPEPD, mSRC and hAβ1-42. To determine whether a blood coagulation factor degrades hPEPD, hPEPD at 90 nM or lower concentrations (10 or 40 nM) was incubated with solvent, 100 nM FIIa, 100 nM FXa, 10 nM FVIIa with or without 10 nM TF, or 10 nM FVII with or without 10 nM TF and/or 100 nM FIIa in PBS in a total volume of 100 μl containing 5 mM CaCl2 for desired times at RT. […] To compare the hPEPD-degrading activities of different plasma samples, 9.2 pmol of hPEPD was incubated with 100 μl of plasma from WT mice or FVII^tTA/tTA mice at RT, with or without FIIa or FXa (10 pmol), and to maximize detection of any activity, all incubations lasted for 24 h. […] To measure remaining hPEPD, the incubated samples were cleared of potential fibrin clots by centrifugation and then analyzed by SDS-PAGE and silver staining (using the LC 6070 kit from Invitrogen), IB or measurement of hPEPD enzymatic activity. hPEPD enzymatic activity was measured using glycyl-proline as a substrate (as described in Zbucka et al., Folia Histochem Cytobiol 2007; 45 Suppl 1: S181-185). The precipitates from each incubated sample were washed with PBS twice and then resuspended in 2.5% SDS (20 μper sample); each solution was mixed with 10 μl loading dye and analyzed for hPEPD by IB, using pure hPEPD as a standard and factor FXIIIa as a binding control, respectively.
molecule,measurement,setting,value
"hPEPD: recombinant human prolidase (PEPD), 6xHis tagged to the carboxy terminus (protein, UniProt P12955 2-493, looked up, C-terminal 6xHis tag, recombinant human prolidase (PEPD), 6xHis tagged to the carboxy terminus) Xaa-Pro dipeptidase: AAATGPSFWLGNETLKVPLALFALNRQRLCERLRKNPAVQAGSIVVLQGGEETQRYCTDTGVLFRQESFFHWAFGVTEPGCYGVIDVDTGKSTLFVPRLPASHATWMGKIHSKEHFKEKYAVDDVQYVDEIASVLTSQKPSVLLTLRGVNTDSGSVCREASFDGISKFEVNNTILHPEIVECRVFKTDMELEVLRYTNKISSEAHREVMKAVKVGMKEYELESLFEHYCYSRGGMRHSSYTCICGSGENSAVLHYGHAGAPNDRTIQNGDMCLFDMGGEYYCFASDITCSFPANGKFTADQKAVYEAVLRSSRAVMGAMKPGVWWPDMHRLADRIHLEELAHMGILSGSVDAMVQAHLGAVFMPHGLGHFLGIDVHDVGGYPEGVERIDEPGLRSLRTARHLQPGMVLTVEPGIYFIDHLLDEALADPARASFLNREVLQRFRGFGGVRIEEDVVVTDSGIELLTCVPRTVEEIEACMAGCDKAFTPFSGPK",hPEPD degradation in plasma after adding human FIIa or FXa,[1]; FVII tTA/tTA plasma,neither factor was effective
same,hPEPD degradation after incubation with plasma,"[1]; FVII tTA/tTA plasma, 24 h, RT",no degradation of hPEPD could be detected
same,hPEPD degradation in plasma after adding human FIIa or FXa,[1]; WT plasma,markedly enhanced hPEPD degradation
same,hPEPD remained after incubation with plasma,"[1]; WT plasma, 24 h, RT",88.8%
same,hPEPD degradation in plasma after removal of FVII/FVIIa by immunodepletion,"[1]; WT plasma, with or without FIIa",abolished the residual hPEPD degradation or FIIa-enabled hPEPD degradation
same,binding to FXII,FXII,binds only to FXII
same,"plasma level of total PEPD, increase","plasma PEPD; FVII tTA/tTA mice, hPEPD 0.2 mg/kg i.p., 6 h",12.0 fold
same,"plasma level of total PEPD, increase","plasma PEPD; FXII−/− mice, hPEPD 0.2 mg/kg i.p., 6 h, no EP",12.5 fold
same,"plasma level of total PEPD, increase","plasma PEPD; FXII−/− mice, hPEPD 4 mg/kg i.p., 24 h",134.6 fold
same,"average plasma level of total PEPD, of control","plasma PEPD; WT mice, hPEPD 0.2 mg/kg i.p., 1 h",51%
same,"plasma level of total PEPD, decrease","plasma PEPD; WT mice, hPEPD 0.2 mg/kg i.p., 6 h, no EP",66% and 56.3%
same,"average plasma level of total PEPD, of control","plasma PEPD; WT mice, hPEPD 0.2 mg/kg i.p., 24 h",46%
same,"plasma level of total PEPD, increase","plasma PEPD; WT mice, hPEPD 4 mg/kg i.p., 24 h",3.3 fold
same,"average plasma level of total PEPD (hPEPD plus mPEPD), increase","plasma PEPD; WT mice, 1 h",19.4 fold
same,"average plasma level of total PEPD (hPEPD plus mPEPD), increase","plasma PEPD; WT mice, 24 h",15.1 fold
same,"plasma level of total PEPD, difference between FVII tTA/tTA and WT mice","plasma PEPD; hPEPD 0.2 mg/kg i.p., 6 h",68.9 fold
same,"average plasma level of total PEPD, higher in FXII−/− mice than in WT mice","plasma PEPD; hPEPD 0.2 mg/kg i.p., 6 h, no EP",53.8 fold
same,"average plasma level of mSRC, increase",plasma mSRC,remained unchanged
same,effect of FXa on hPEPD stability,FXa,had no effect on hPEPD stability
